For series [1], the system named is HeLa Kyoto. In words: melting temperature (median over replicates), in situ; higher = more thermally stable.
For series [2], the system named is HeLa Kyoto. In words: solubility change mitosis vs G1/S (difference of NP-40 vs SDS log2 ratios) (log2 ratio difference); higher = more soluble in mitosis.
The test system of series [3] is HeLa Kyoto. Kind of series: thermal stability score vs G1/S (z-score of summed log2 fold changes over temperatures); higher = more thermally stable than in G1/S.
The test system of series [4] is HeLa Kyoto. Kind of series: solubility in G1/S (NP-40 vs SDS abundance) (log2 ratio); higher = more soluble. The note with it: cell cycle stage: G1/S.
Setting [5] is: cell cycle stage: early G1 (4.5 h after nocodazole release).
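For melting temperature (median over replicates), in situ in this document: HeLa Kyoto cells synchronized by double thymidine or nocodazole block, proteins quantified by TMT10plex mass spectrometry, three independent biological replicates.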
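For solubility change mitosis vs G1/S (difference of NP-40 vs SDS log2 ratios) in this document: synchronized HeLa Kyoto cells (double thymidine block for G1/S, nocodazole release for mitosis), protein amounts in NP-40 versus SDS lysates quantified by mass spectrometry, three biological replicates.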
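For solubility in G1/S (NP-40 vs SDS abundance) in this document: HeLa Kyoto cells arrested at G1/S by double thymidine block, proteins quantified by TMT10plex mass spectrometry in mild NP-40 versus SDS extracts, three biological replicates.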
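For thermal stability score vs G1/S (z-score of summed log2 fold changes over temperatures) in this document: synchronized HeLa Kyoto cells, proteins quantified by TMT10plex mass spectrometry, three biological replicates, mitosis taken 0.5 h after nocodazole release, G1/S directly after double thymidine block.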

Take “MESRDPAQPMSPGEATQSGARPADRYGLLKHSREFLDFFWDIAKPEQETRLAATEKLLEYLRGRPKGSEMKYALKRLITGLGVGRETARPCYSLALAQLLQSFEDLPLCSILQQIQEKYDLHQVKKAMLRPALFANLFGVLALFQSGRLVKDQEALMKSVKLLQALAQYQNHLQEQPRKALVDILSEVSKATLQEILPEVLKADLNIILSSPEQLELFLLAQQKVPSKLKKLVGSVNLFSDENVPRLVNVLKMAASSVKKDRKLPAIALDLLRLALKEDKFPRFWKEVVEQGLLKMQFWPASYLCFRLLGAALPLLTKEQLHLVMQGDVIRHYGEHVCTAKLPKQFKFAPEMDDYVGTFLEGCQDDPERQLAVLVAFSSVTNQGLPVTPTFWRVVRFLSPPALQGYVAWLRAMFLQPDLDSLVDFSTNNQKKAQDSSLHMPERAVFRLRKWIIFRLVSIVDSLHLEMEEALTEQVARFCLFHSFFVTKKPTSQIPETKHPFSFPLENQAREAVSSAFFSLLQTLSTQFKQAPGQTQGGQPWTYHLVQFADLLLNHSHNVTTVTPFTAQQRQAWDRMLQTLKELEAHSAEARAAAFQHLLLLVGIHLLKSPAESCDLLGDIQTCIRKSLGEKPRRSRTKTIDPQEPPWVEVLVEILLALLAQPSHLMRQVARSVFGHICSHLTPRALQLILDVLNPETSEDENDRVVVTDDSDERRLKGAEDKSEEGEDNRSSESEEESEGEESEEEERDGDVDQGFREQLMTVLQAGKALGGEDSENEEELGDEAMMALDQSLASLFAEQKLRIQARRDEKNKLQKEKALRRDFQIRVLDLVEVLVTKQPENALVLELLEPLLSIIRRSLRSSSSKQEQDLLHKTARIFTHHLCRARRYCHDLGERAGALHAQVERLVQQAGRQPDSPTALYHFNASLYLLRVLKGNTAEGCVHETQEKQKAGTDPSHMPTGPQAASCLDLNLVTRVYSTALSSFLTKRNSPLTVPMFLSLFSRHPVLCQSLLPILVQHITGPVRPRHQACLLLQKTLSMREVRSCFEDPEWKQLMGQVLAKVTENLRVLGEAQTKAQHQQALSSLELLNVLFRTCKHEKLTLDLTVLLGVLQGQQQSLQQGAHSTGSSRLHDLYWQAMKTLGVQRPKLEKKDAKEIPSATQSPISKKRKKKGFLPETKKRKKRKSEDGTPAEDGTPAATGGSQPPSMGRKKRNRTKAKVPAQANGTPTTKSPAPGAPTRSPSTPAKSPKLQKKNQKPSQVNGAPGSPTEPAGQKQHQKALPKKGVLGKSPLSALARKKARLSLVIRSPSLLQSGAKKKAQVRKAGKP [MYBBP1A]”: the values for the melting temperature in the series with HeLa Kyoto [1] (cell cycle stage: G1/S) and with HeLa Kyoto [1] (cell cycle stage: mitosis) were 48.1 °C and 48.9 °C, respectively. In addition, the “solubility change mitosis (log2)” value in the series on HeLa Kyoto [2] was 0.349. The thermal stability score with HeLa Kyoto [3] (setting [5]) was found to be 0.7; with HeLa Kyoto [3] (cell cycle stage: mitosis) it was 2.36. The “solubility in G1/S (log2)” value in the series on HeLa Kyoto [4] is -0.42.

For “MESVSCSAAAVRTGDMESQRDLSLVPERLQRREQERQLEVERRKQKRQNQEVEKENSHFFVATFVRERAAVEELLERAESVERLEEAASRLQGLQKLINDSVFFLAAYDLRQGQEALARLQAALAERRRGLQPKKRFAFKTRGKDAASSTKVDAAPGIPPAVESIQDSPLPKKAEGDLGPSWVCGFSNLESQVLEKRASELHQRDVLLTELSNCTVRLYGNPNTLRLTKAHSCKLLCGPVSTSVFLEDCSDCVLAVACQQLRIHSTKDTRIFLQVTSRAIVEDCSGIQFAPYTWSYPEIDKDFESSGLDRSKNNWNDVDDFNWLARDMASPNWSILPEEERNIQWD [TBCC]”, the melting temperature in the series with HeLa Kyoto [1] (cell cycle stage: G1/S) was 51.8 °C; with HeLa Kyoto [1] (cell cycle stage: mitosis), 52.4 °C. Also, the “solubility change mitosis (log2)” value in the series on HeLa Kyoto [2] is -0.152. The thermal stability score in the series on HeLa Kyoto [3] (setting [5]) amounted to 0.786; in the series with HeLa Kyoto [3] (cell cycle stage: mitosis) it was 0.503. Further, the “solubility in G1/S (log2)” value in the series with HeLa Kyoto [4] is 0.242.

For “MESYDIIANQPVVIDNGSGVIKAGFAGDQIPKYCFPNYVGRPKHMRVMAGALEGDLFIGPKAEEHRGLLTIRYPMEHGVVRDWNDMERIWQYVYSKDQLQTFSEEHPVLLTEAPLNPSKNREKAAEVFFETFNVPALFISMQAVLSLYATGRTTGVVLDSGDGVTHAVPIYEGFAMPHSIMRVDIAGRDVSRYLRLLLRKEGVDFHTSAEFEVVRTIKERACYLSINPQKDEALETEKVQYTLPDGSTLDVGPARFRAPELLFQPDLVGDESEGLHEVVAFAIHKSDMDLRRTLFANIVLSGGSTLFKGFGDRLLSEVKKLAPKDIKIKISAPQERLYSTWIGGSILASLDTFKKMWVSKKEYEEDGSRAIHRKTF [ACTR1B]”, the melting temperature in the series with HeLa Kyoto [1] (cell cycle stage: G1/S) was found to be 54 °C; in the series with HeLa Kyoto [1] (cell cycle stage: mitosis), 53.1 °C. In addition, in the series on HeLa Kyoto [2], the “solubility change mitosis (log2)” value is -0.178. In addition, the thermal stability score was -0.612 in the series with HeLa Kyoto [3] (setting [5]) and -1.12 with HeLa Kyoto [3] (cell cycle stage: mitosis). In addition, the “solubility in G1/S (log2)” value with HeLa Kyoto [4] is -0.021.

For “METAEKECGALGGLFQAIVNDMKSSYPIWEDFNSKATKLHSQLRTTVLAAVAFLDAFQKVADMATNTRGATRDIGSALTRMCMRHRSIETKLRQFTNALLESLINPLQERIEDWKKAANQLDKDHAKEYKRARHEIKKKSSDTLKLQKKARKELLGKGDLQPQLDSALQDVNDMYLLLEETEKQAVRRALIEERGRFCTFITFLQPVVNGELTMLGEITHLQGIIDDLVVLTAEPHKLPPASEQVIKDLKGSDYSWSYQTPPSSPSSSSSRKSSMCSAPSSSSSAKGGGAPWPGGAQTYSPSSTCRYRSLAQPATTTARLSSVSSHDSGFVSQDATYSKPPSPMPSDITSQKSSSSASSEASETCQSVSECSSPTSDWSKVGSHEQPSGATLQRRKDRVELLRDTEPGPASGGTLGPSGEEAPRPRMSPATIAAKHGEEVSPAASDLAMVLTRGLSLEHQKSSRDSLQYSSGYSTQTTTPSCSEDTIPSQGSDYDCYSVNGDADSEGPPEFDKSSTIPRNSNIAQNYRRLIQTKRPASTAGLPTAGLPTATGLPSGAPPGVATIRRTPSTKPTVRRALSSAGPIPIRPPIVPVKTPTVPDSPGYMGPTRAGSEECVFYTDETASPLAPDLAKASPKRLSLPNTAWGSPSPEAAGYPGAGAEDEQQQLAANRHSLVEKLGELVAGAHALGEGQFPFPTALSATPTEETPTPPPAATSDPPAEDMLVAIRRGVRLRRTVTNDRSAPRIL [MTSS1L]”, the melting temperature is 53.5 °C with HeLa Kyoto [1] (cell cycle stage: G1/S) and 54.2 °C in the series on HeLa Kyoto [1] (cell cycle stage: mitosis). For the same sequence, the “solubility change mitosis (log2)” value with HeLa Kyoto [2] was -0.0468. For the same sequence, the figures for the thermal stability score with HeLa Kyoto [3] (setting [5]) and in the series on HeLa Kyoto [3] (cell cycle stage: mitosis) were 0.647 and 0.625, respectively. Moreover, in the series with HeLa Kyoto [4], the “solubility in G1/S (log2)” value came to 0.191.

In the case of “METLSFPRYNVAEIVIHIRNKILTGADGKNLTKNDLYPNPKPEVLHMIYMRALQIVYGIRLEHFYMMPVNSEVMYPHLMEGFLPFSNLVTHLDSFLPICRVNDFETADILCPKAKRTSRFLSGIINFIHFREACRETYMEFLWQYKSSADKMQQLNAAHQEALMKLERLDSVPVEEQEEFKQLSDGIQELQQSLNQDFHQKTIVLQEGNSQKKSNISEKTKRLNELKLSVVSLKEIQESLKTKIVDSPEKLKNYKEKMKDTVQKLKNARQEVVEKYEIYGDSVDCLPSCQLEVQLYQKKIQDLSDNREKLASILKESLNLEDQIESDESELKKLKTEENSFKRLMIVKKEKLATAQFKINKKHEDVKQYKRTVIEDCNKVQEKRGAVYERVTTINQEIQKIKLGIQQLKDAAEREKLKSQEIFLNLKTALEKYHDGIEKAAEDSYAKIDEKTAELKRKMFKMST [NUF2]”, the figures for the melting temperature in the series with HeLa Kyoto [1] (cell cycle stage: G1/S) and in the series with HeLa Kyoto [1] (cell cycle stage: mitosis) were 48.2 °C and 48.1 °C, respectively. Besides, in the series on HeLa Kyoto [2], the “solubility change mitosis (log2)” value was -0.0858. For the same sequence, the thermal stability score in the series with HeLa Kyoto [3] (setting [5]) came out at 0.86; in the series on HeLa Kyoto [3] (cell cycle stage: mitosis), 1.16. Further, the “solubility in G1/S (log2)” value with HeLa Kyoto [4] is -0.0908.
